The target of the assay is proinsulin 2 (mouse (endogenous in MIN6)). Description: non-reducing SDS-PAGE of immunoprecipitates (disulfide-linked forms) + mass spectrometry of the excised band; MIN6 cells treated with 50 µM olanzapine; pulse-chase, immunoprecipitation with anti-insulin #8138, non-reducing SDS-PAGE and autoradiography; for mass spectrometry cells were lysed in 1% NP40 with 10 mM NEM and the HMP-1 band was excised.

Where “and” joins values, the source holds several entries; their conditions need not be identical. Identical values can stand only once.

As usually defined, the stoichiometry N is the number of molecules, sites or subunits per partner or assembly.

Regarding proinsulin 2 (natural protein), the stoichiometry N was 2 and 3.

These data come from publication PMC7671685.
